Reference: patent US9410182B2, “Phosphatase coupled glycosyltransferase assay” (Bio-Techne Corporation, priority 2010, dated 2016)

Substrate: N[C@H]1C(O)O[C@H](CO)[C@@H](O[C@@H]2O[C@H](CO)[C@H](O)[C@H](O)[C@H]2O)[C@@H]1O
Experiment: Sialyltransferase activity of ST6Gal 1 assayed with CD73
Format: biochemical, human
Conditions: other: acceptor varied, CMP-NeuAc fixed at 0.2 mM; pH 7.5
Excerpt: The GDP-Fucose, UDP-Glucose, CMP-NeuAc, CMP, UDP and GDP used in the following experiments were obtained from Sigma-Aldrich (St Louis, Mo.). The recombinant human Fut7, ST6Gal1, CD73, CD39L3, non-specific alkaline phosphatase TNAP, recombinant Clostridium Difficile toxin B (TcdB) containing the glycosyltransferase domain and Malachite Green Phosphate Detection Kit were obtained from R&D Systems (Minneapolis, Minn.). The 3′-Sialyl-N-acetyllactosamine was obtained from V-LABS, Inc (Convington, La.). Unless otherwise specified, each glycosyltransferase reaction was performed in 50 μL of a buffer of 25 mM Tris, 150 mM NaCl, 5 mM MgCl2 and 5 mM MnCl2, at pH 7.5 in a 96-well plate at room temperature for 20 minutes. […] The plate was then read at 620 nm with a multi-well plate reader.
Sialic acid is negatively charged under normal pH conditions, making sialyltransferases more difficult to assay than other glycosyltransferases. […] The results are shown in FIG. 7, and the specific activities against lactosamine and lactose were determined to be 458 and 41 pmol/min/μg respectively, confirming that the enzyme strongly favors lactosamine structure. The apparent Km and Vmax were determined for one substrate while fixing the other by fitting the data to KaleidaGraph 4 program.

B1: ST6Gal 1 (Homo sapiens) (protein)
chain: MIHTNLKKKFSCCVLVFLLFAVICVWKEKKKGSYYDSFKLQTKEFQVLKSLGKLAMGSDSQSVSSSSTQDPHRGRQTLGSLRGLAKAKPEASFQVWNKDSSSKNLIPRLQKIWKNYLSMNKYKVSYKGPGPGIKFSAEALRCHLRDHVNVSMVEVTDFPFNTSEWEGYLPKESIRTKAGPWGRCAVVSSAGSLKSSQLGREIDDHDAVLRFNGAPTANFQQDVGTKTTIRLMNSQLVTTEKRFLKDSLYNEGILIVWDPSVYHSDIPKWYQNPDYNFFNNYKTYRKLHPNQPFYILKPQMPWELWDILQEISPEEIQPNPPSSGMLGIIIMMTLCDQVDIYEFLPSKRKTDVCYYYQKFFDSACTMGAYHPLLYEKNLVKHLNQGTDEDIYLLGKATLPGFRTIHC
notes: purchased R&D Systems
B1 was tested, and the Km was 1800 ± 400 µM and the Vmax was 496 ± 38 pmol/min/µg.
